Data taken from patent publication US20210130436A1.
Values joined by “and” are separate entries in the source; they are usually repeats but may differ in a detail not shown here. Identical values can stand only once.

Chain of Wild Type PD-L2 IgV-Fc (Q9BQ51 20-121): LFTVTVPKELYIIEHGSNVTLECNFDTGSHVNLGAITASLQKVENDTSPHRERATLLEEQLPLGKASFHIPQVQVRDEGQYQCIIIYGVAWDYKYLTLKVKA

The substances below were run against PD-1 (PDCD1) (Homo sapiens (Human)) (UniProt Q15116) (assay: cell-based or functional assay).
Chain of PD-1 (PDCD1) (Homo sapiens (Human)) (Q15116 21-288): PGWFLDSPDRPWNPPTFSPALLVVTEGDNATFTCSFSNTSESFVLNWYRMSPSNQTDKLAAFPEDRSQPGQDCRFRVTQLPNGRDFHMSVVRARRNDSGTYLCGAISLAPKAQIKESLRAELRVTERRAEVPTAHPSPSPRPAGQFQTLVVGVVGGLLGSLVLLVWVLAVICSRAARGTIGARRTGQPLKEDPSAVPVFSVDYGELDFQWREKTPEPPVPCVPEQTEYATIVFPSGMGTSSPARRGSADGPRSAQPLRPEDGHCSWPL
For “PD-L2 H15Q/S39I/I86T IgV-Fc (from UniProt Q9BQ51 20-121) (Fc fusion)”, the IFN gamma levels pg/mL (MLR) was 1420 pg/mL. Work on “PD-L2 H15Q/S67L/R76G IgV-Fc (from UniProt Q9BQ51 20-121) (Fc fusion)” yielded an IFN gamma levels pg/mL (MLR) of 1430 pg/mL. For “PD-L2 H15Q/S67L/R76G/I85F IgV-Fc (from UniProt Q9BQ51 20-121) (Fc fusion)”, the IFN gamma levels pg/mL (MLR) was 1320 pg/mL. Substance “PD-L2 H15Q/T47A/K65R/S67L/Q82R/V89D IgV-Fc (from UniProt Q9BQ51 20-121) (Fc fusion)” has an IFN gamma levels pg/mL (MLR) of 1340 pg/mL. “PD-L2 H15Q/T47A/Q72H/R76G IgV-Fc (from UniProt Q9BQ51 20-121) (Fc fusion)” showed an IFN gamma levels pg/mL (MLR) of 1460 pg/mL. Substance “PD-L2 H15Q/T47A/Q82R IgV-Fc (from UniProt Q9BQ51 20-121) (Fc fusion)” has an IFN gamma levels pg/mL (MLR) of 1320 pg/mL. “PD-L2 H15Q/V89D IgV-Fc (from UniProt Q9BQ51 20-121) (Fc fusion)” gave an IFN gamma levels pg/mL (MLR) of 1500 pg/mL. In the case of “PD-L2 I12V/I13V/H15Q/T47A/Q82R/V89D IgV-Fc (from UniProt Q9BQ51 20-121) (Fc fusion)”, the IFN gamma levels pg/mL (MLR) is reported as 1530 pg/mL. For “PD-L2 I13V/H15Q/E44D/V89D IgV-Fc (from UniProt Q9BQ51 20-121) (Fc fusion)”, the IFN gamma levels pg/mL (MLR) was 1380 pg/mL. “PD-L2 I13V/H15Q/E44V/T47A/Q82R/V89D IgV-Fc (from UniProt Q9BQ51 20-121) (Fc fusion)” was tested, and the IFN gamma levels pg/mL (MLR) was 1270 pg/mL. With “PD-L2 I13V/H15Q/I36V/T47A/S67L/V89D IgV-Fc (from UniProt Q9BQ51 20-121) (Fc fusion)” the IFN gamma levels pg/mL (MLR) was 1360 pg/mL. With “PD-L2 I13V/H15Q/L33F/T47A/Q82R/V89D IgV-Fc (from UniProt Q9BQ51 20-121) (Fc fusion)” the IFN gamma levels pg/mL (MLR) was 1470 pg/mL. Substance “PD-L2 I13V/H15Q/Q82R IgV-Fc (from UniProt Q9BQ51 20-121) (Fc fusion)” has an IFN gamma levels pg/mL (MLR) of 1430 pg/mL. “PD-L2 I13V/H15Q/R76G/I85F IgV-Fc (from UniProt Q9BQ51 20-121) (Fc fusion)” showed an IFN gamma levels pg/mL (MLR) of 1530 pg/mL. “PD-L2 I13V/H15Q/T47A/Q72H/R76G IgV-Fc (from UniProt Q9BQ51 20-121) (Fc fusion)” showed an IFN gamma levels pg/mL (MLR) of 1470 pg/mL. With “PD-L2 I13V/H15Q/T47A/Q82R/V89D IgV-Fc (from UniProt Q9BQ51 20-121) (Fc fusion)” the IFN gamma levels pg/mL (MLR) was 1450 pg/mL and 1740 pg/mL. In the case of “PD-L2 I13V/Q72H/R76G/I86T IgV-Fc (from UniProt Q9BQ51 20-121) (Fc fusion)”, the IFN gamma levels pg/mL (MLR) is reported as 1950 pg/mL. “PD-L2 I13V/S67L/Q82R/V89D IgV-Fc (from UniProt Q9BQ51 20-121) (Fc fusion)” gave an IFN gamma levels pg/mL (MLR) of 1370 pg/mL. In the case of “PD-L2 N24D IgV-Fc (from UniProt Q9BQ51 20-121) (Fc fusion)”, the IFN gamma levels pg/mL (MLR) is reported as 1980 pg/mL. “PD-L2 S39I/V89D IgV-Fc (from UniProt Q9BQ51 20-121) (Fc fusion)” gave an IFN gamma levels pg/mL (MLR) of 1310 pg/mL. Work on “PD-L2 S67L/I85F IgV-Fc (from UniProt Q9BQ51 20-121) (Fc fusion)” yielded an IFN gamma levels pg/mL (MLR) of 1280 pg/mL. For “Wild Type PD-L2 IgV-Fc (from UniProt Q9BQ51 20-121) (Fc fusion)”, the IFN gamma levels pg/mL (MLR) was 1380 pg/mL.

The substances below were run against PD-L1 expressed on CHO/OKT3/PD-L1 artificial antigen presenting cells (human) (UniProt Q9NZQ7) (assay: cell-based or functional assay).
Chain of PD-L1 expressed on CHO/OKT3/PD-L1 artificial antigen presenting cells (human) (Q9NZQ7 19-290): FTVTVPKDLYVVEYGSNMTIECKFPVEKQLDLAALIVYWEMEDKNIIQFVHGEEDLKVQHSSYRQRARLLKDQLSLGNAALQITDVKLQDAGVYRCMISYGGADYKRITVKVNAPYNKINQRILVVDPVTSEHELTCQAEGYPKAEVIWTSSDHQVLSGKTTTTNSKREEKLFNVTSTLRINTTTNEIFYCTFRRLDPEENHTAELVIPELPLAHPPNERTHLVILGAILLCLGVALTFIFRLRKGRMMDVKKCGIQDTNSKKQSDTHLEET
Work on “Fc1.1 Control (from UniProt P0DOX5 218-448)” yielded a Relative Luciferase Units (RLU), Jurkat/IL2 + CHO/OKT3/PD-L1 reporter assay, CD80 Conc 5.0 nM of 97 RLU.

Each substance was assayed against human PD-L1 on CHO cells (human) (UniProt Q9NZQ7) (assay: cell-based or functional assay).
Chain of human PD-L1 on CHO cells (human) (Q9NZQ7 19-290): as above
Work on “variant CD80 IgV-Fc deltaE10-A98 (Fc fusion)” yielded a Fold Increase over WT CD80-IgV-Fc of 0.3 fold and a Jurkat/IL2 + CHO/OKT3/PD-L1 Reporter Assay: Relative Luciferase Units (RLU), CD80-Fc Conc 5.0 nM of 137 RLU.

These substances were tested against PD-1 (Homo sapiens (Human)) (UniProt Q15116) (assay: flow cytometry on Jurkat/PD-1 cells, 50 nM).
Chain of PD-1 (Homo sapiens (Human)) (Q15116 21-288): as the sequence (Q15116 21-288) above
“PD-L1 A33D/S75P IgV-Fc (first entry) (from UniProt Q9NZQ7 19-132) (Fc fusion)” gave a Fold increase over wildtype PD-L1 IgV-Fc of 0.1 fold and an MFI at 50 nM of 306.

What follows are substances tested against human CTLA4 (huCTLA4), full-length, stably expressed on CHO cells (human) (UniProt P16410) (assay: flow cytometry, CHO cells expressing huCTLA4).
Chain of human CTLA4 (huCTLA4), full-length, stably expressed on CHO cells (human) (P16410 36-223): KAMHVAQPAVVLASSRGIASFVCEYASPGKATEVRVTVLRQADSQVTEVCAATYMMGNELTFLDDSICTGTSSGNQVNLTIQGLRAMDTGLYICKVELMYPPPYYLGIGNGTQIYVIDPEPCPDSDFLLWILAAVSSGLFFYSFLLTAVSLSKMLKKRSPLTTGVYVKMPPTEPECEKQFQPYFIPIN
In the case of “variant CD80 IgV-Fc H18Y/E35D/M38I/M47L/V68M/L85M (from UniProt P33681 35-141) (Fc fusion)”, the MFI at 33.3 nM is reported as 139 MFI.

These substances were tested against human CD28, full length, expressed on transfected HEK293 cells (human) (UniProt P10747) (assay: flow cytometry, HEK293 cells transfected with human CD28).
“variant CD80 IgV-Fc A26E/E35D/M47L/L85Q (from UniProt P33681 35-141) (Fc fusion)” showed an MFI at 66.6 nM of 2270 MFI. With “variant CD80 IgV-Fc N55I/T57I/I69F (from UniProt P33681 35-141) (Fc fusion)” the MFI at 66.6 nM was 1900 MFI. Work on “variant CD80 IgV-Fc V22L/E35D/M43L/A71G/D76H (from UniProt P33681 35-141) (Fc fusion)” yielded an MFI at 66.6 nM of 1500 MFI. With “variant CD80 IgV-Fc Y31H/E35D/T41S/V68L/K93R/R94W (from UniProt P33681 35-141) (Fc fusion)” the MFI at 66.6 nM was 2450 MFI.

These substances were tested against human PD-L1, full length, expressed on transfected HEK293 cells (human) (UniProt Q9NZQ7) (assay: flow cytometry, HEK293 cells transfected with human PD-L1).
Chain of human PD-L1, full length, expressed on transfected HEK293 cells (human) (Q9NZQ7 19-290): as the sequence (Q9NZQ7 19-290) above
“variant CD80 IgV-Fc E35D/T57A/A71D/L85Q (from UniProt P33681 35-141) (Fc fusion)” showed an MFI at 22.2 nM of 1760 MFI. Substance “variant CD80 IgV-Fc H18Y/A71D/L72P/E88V (from UniProt P33681 35-141) (Fc fusion)” has an MFI at 22.2 nM of 1080 MFI. “variant CD80 IgV-Fc L70Q/A71D (from UniProt P33681 35-141) (Fc fusion)” showed an MFI at 22.2 nM of 1690 MFI. Substance “variant CD80 IgV-Fc M47V/I69F/A71D/V83I (from UniProt P33681 35-141) (Fc fusion)” has an MFI at 22.2 nM of 3400 MFI. For “variant CD80 IgV-Fc Q27H/E35G/A71D/L72P/T79I (from UniProt P33681 35-141) (Fc fusion)”, the MFI at 22.2 nM was 1450 MFI. Substance “variant CD80 IgV-Fc Q27L/E35D/M47I/T57I/L70Q/E88D (from UniProt P33681 35-141) (Fc fusion)” has an MFI at 22.2 nM of 1050 MFI. Work on “variant CD80 IgV-Fc T13R/M42V/M47I/A71D (from UniProt P33681 35-141) (Fc fusion)” yielded an MFI at 22.2 nM of 1870 MFI. “variant CD80 IgV-Fc V20I/A71D (from UniProt P33681 35-141) (Fc fusion)” was tested, and the MFI at 22.2 nM was 3550 MFI. With “variant CD80 IgV-Fc V22L/E35D/M43L/A71G/D76H (from UniProt P33681 35-141) (Fc fusion)” the MFI at 22.2 nM was 1850 MFI. With “variant CD80 IgV-Fc V22L/E35G/A71D/L72P (from UniProt P33681 35-141) (Fc fusion)” the MFI at 22.2 nM was 1400 MFI.

Each substance was assayed against CD28, endogenously expressed on Jurkat/IL2 reporter cells (human) (UniProt P10747) (assay: flow cytometry, Jurkat/IL2 reporter cells (endogenous CD28)).
With “variant CD80 IgV-Fc E24D/E35D/M47L/V68M/E95V/L97Q (from UniProt P33681 35-141) (Fc fusion)” the MFI at 33.3 nM was 15 MFI. “variant CD80 IgV-Fc E35D/D46E/M47L/V68M/T79M/L85M/L97Q (from UniProt P33681 35-141) (Fc fusion)” was tested, and the MFI at 33.3 nM was 14 MFI. Substance “variant CD80 IgV-Fc E35D/M47L/V68M/E95V/L97Q (from UniProt P33681 35-141) (Fc fusion)” has an MFI at 33.3 nM of 14 MFI. For “variant CD80 IgV-Fc H18Y/E35D/M38I/M47L/V68M/L85M (from UniProt P33681 35-141) (Fc fusion)”, the MFI at 33.3 nM was 16.7 MFI. Work on “variant CD80 IgV-Fc Q27L/Q33L/E35D/T41S/M47V/N48K/V68M/L85M (from UniProt P33681 35-141) (Fc fusion)” yielded an MFI at 33.3 nM of 15 MFI. For “variant CD80 IgV-Fc Q33L/E35D/M47V/T62S/V68M/L85M (from UniProt P33681 35-141) (Fc fusion)”, the MFI at 33.3 nM was 15 MFI. In the case of “variant CD80 IgV-Fc Q33R/E35D/M38I/M47L/V68M (from UniProt P33681 35-141) (Fc fusion)”, the MFI at 33.3 nM is reported as 15 MFI. With “variant CD80 IgV-Fc R29C/E35D/M47L/V68M/A71G/L85M (from UniProt P33681 35-141) (Fc fusion)” the MFI at 33.3 nM was 16 MFI.

Each substance was assayed against human CTLA4 (full-length, expressed on CHO cells) (human) (UniProt P16410) (assay: flow cytometry, CHO cells expressing huCTLA4, PE anti-human Fc).
Chain of human CTLA4 (full-length, expressed on CHO cells) (human) (P16410 36-223): as the sequence (P16410 36-223) above
“variant CD80 IgV-Fc E35D/M47I/K54R/L85E (from UniProt P33681 35-141) (Fc fusion)” gave an MFI at 33.3 nM of 8660 MFI. With “variant CD80 IgV-Fc Q33K/E35D/D46V/L85Q (from UniProt P33681 35-141) (Fc fusion)” the MFI at 33.3 nM was 8510 MFI. With “variant CD80 IgV-Fc Q33L/E35D/M47I (from UniProt P33681 35-141) (Fc fusion)” the MFI at 33.3 nM was 15900 MFI. With “variant CD80 IgV-Fc Q33L/E35D/T41S/M47V (from UniProt P33681 35-141) (Fc fusion)” the MFI at 33.3 nM was 14500 MFI.

These substances were tested against CD28, endogenously expressed on Jurkat/IL2 reporter cells (human) (UniProt P10747) (assay: flow cytometry, Jurkat/IL2 reporter cells (endogenous CD28), PE anti-human Fc).
“variant CD80 IgV-Fc H18L/V22A/E35D/M47L/N48T/L85Q (from UniProt P33681 35-141) (Fc fusion)” gave an MFI at 33.3 nM of 434 MFI. Substance “variant CD80 IgV-Fc Q33L/E35D/T41S/M43I (from UniProt P33681 35-141) (Fc fusion)” has an MFI at 33.3 nM of 433 MFI.

The substances below were run against human CD28, endogenous on Jurkat/IL2 reporter cells (human) (UniProt P10747) in the same assay as above.
Work on “variant CD80 IgV-Fc E35D/D46E/M47V/N63D/L85Q (from UniProt P33681 35-141) (Fc fusion)” yielded an MFI at 33.3 nM of 1330 MFI. Work on “variant CD80 IgV-Fc E35D/K37E/M47V/N48D/L85Q/D90N (from UniProt P33681 35-141) (Fc fusion)” yielded an MFI at 33.3 nM of 1590 MFI. In the case of “variant CD80 IgV-Fc E35D/M47L/A71G/L85Q (from UniProt P33681 35-141) (Fc fusion)”, the MFI at 33.3 nM is reported as 1440 MFI.

Each substance was assayed against CD28, endogenously expressed on Jurkat/IL2 reporter cells (human) (UniProt P10747) (assay: flow cytometry on Jurkat/IL2 reporter cells (endogenous CD28); PE anti-human Fc).
Substance “variant CD80 IgV-Fc E35D/M42V/M47V/E52D/L85Q (from UniProt P33681 35-141) (Fc fusion)” has an MFI at 33.3 nM of 1290 MFI. Substance “variant CD80 IgV-Fc E35D/Y53H/A71G/D90G/L97R (from UniProt P33681 35-141) (Fc fusion)” has an MFI at 33.3 nM of 1550 MFI. Substance “variant CD80 IgV-Fc Q33L/E35D/M43I/Y53F/T62S/L85Q (from UniProt P33681 35-141) (Fc fusion)” has an MFI at 33.3 nM of 1024 MFI.

What follows are substances tested against CD28 (human) (UniProt P10747) (assay: flow cytometry, Jurkat/IL2 reporter cells (endogenous CD28), 33.3 nM, PE anti-human Fc).
Substance “E35D/D46E/M47L/V68M/L85Q/F92L CD80 IgV-Fc (from UniProt P33681 35-141) (Fc fusion)” has an MFI at 33.3 nM of 15 MFI.
